We go through nine molecules from patent publication US20140087995A1 (published 2014).

What is called IC50 is the concentration that inhibits the measured activity by half.

B1: N^α1-[(4S)-4-carboxy-4-(19-carboxynonadecanoylamino)butanoyl]-[Glu14,Arg17,Pro21,Pro27,His35]-h-amylin (peptide)
peptide: {C20 diacid-γGlu}-KCNTATCATQRLAEFLRHSSPNFGAIPSSTNVGSHTY-NH2
modifications: disulfide 2-7
SMILES: CC[C@H](C)[C@H](NC(=O)[C@H](C)NC(=O)CNC(=O)[C@H](Cc1ccccc1)NC(=O)[C@H](CC(N)=O)NC(=O)[C@@H]1CCCN1C(=O)[C@H](CO)NC(=O)[C@H](CO)NC(=O)[C@H](Cc1c[nH]cn1)NC(=O)[C@H](CCCNC(=N)N)NC(=O)[C@H](CC(C)C)NC(=O)[C@H](Cc1ccccc1)NC(=O)[C@H](CCC(=O)O)NC(=O)[C@H](C)NC(=O)[C@H](CC(C)C)NC(=O)[C@H](CCCNC(=N)N)NC(=O)[C@H](CCC(N)=O)NC(=O)[C@@H](NC(=O)[C@H](C)NC(=O)[C@@H]1CSSC[C@H](NC(=O)[C@H](CCCCN)NC(=O)CC[C@H](NC(=O)CCCCCCCCCCCCCCCCCCC(=O)O)C(=O)O)C(=O)N[C@@H](CC(N)=O)C(=O)N[C@@H]([C@@H](C)O)C(=O)N[C@@H](C)C(=O)N[C@@H]([C@@H](C)O)C(=O)N1)[C@@H](C)O)C(=O)N1CCC[C@H]1C(=O)N[C@@H](CO)C(=O)N[C@@H](CO)C(=O)N[C@H](C(=O)N[C@@H](CC(N)=O)C(=O)N[C@H](C(=O)NCC(=O)N[C@@H](CO)C(=O)N[C@@H](Cc1c[nH]cn1)C(=O)N[C@H](C(=O)N[C@@H](Cc1ccc(O)cc1)C(N)=O)[C@@H](C)O)C(C)C)[C@@H](C)O
notes: also called 18; compound 18
B2: N^α1-[(4S)-4-carboxy-4-[[(4S)-4-carboxy-4-(19-carboxynonadecanoylamino)butanoyl]amino]butanoyl]-[Glu14,Arg17,Pro21,Pro27,Pro37]-h-amylin (peptide)
peptide: {C20 diacid-γGlu-γGlu}-KCNTATCATQRLAEFLRHSSPNFGAIPSSTNVGSNTP-NH2
modifications: disulfide 2-7
SMILES: CC[C@H](C)[C@H](NC(=O)[C@H](C)NC(=O)CNC(=O)[C@H](Cc1ccccc1)NC(=O)[C@H](CC(N)=O)NC(=O)[C@@H]1CCCN1C(=O)[C@H](CO)NC(=O)[C@H](CO)NC(=O)[C@H](Cc1c[nH]cn1)NC(=O)[C@H](CCCNC(=N)N)NC(=O)[C@H](CC(C)C)NC(=O)[C@H](Cc1ccccc1)NC(=O)[C@H](CCC(=O)O)NC(=O)[C@H](C)NC(=O)[C@H](CC(C)C)NC(=O)[C@H](CCCNC(=N)N)NC(=O)[C@H](CCC(N)=O)NC(=O)[C@@H](NC(=O)[C@H](C)NC(=O)[C@@H]1CSSC[C@H](NC(=O)[C@H](CCCCN)NC(=O)CC[C@H](NC(=O)CC[C@H](NC(=O)CCCCCCCCCCCCCCCCCCC(=O)O)C(=O)O)C(=O)O)C(=O)N[C@@H](CC(N)=O)C(=O)N[C@@H]([C@@H](C)O)C(=O)N[C@@H](C)C(=O)N[C@@H]([C@@H](C)O)C(=O)N1)[C@@H](C)O)C(=O)N1CCC[C@H]1C(=O)N[C@@H](CO)C(=O)N[C@@H](CO)C(=O)N[C@H](C(=O)N[C@@H](CC(N)=O)C(=O)N[C@H](C(=O)NCC(=O)N[C@@H](CO)C(=O)N[C@@H](CC(N)=O)C(=O)N[C@H](C(=O)N1CCC[C@H]1C(N)=O)[C@@H](C)O)C(C)C)[C@@H](C)O
notes: also called 14; compound 14
B3: N^α1-[(4S)-4-carboxy-4-(19-carboxynonadecanoylamino)butanoyl]-[Glu14,Arg17,Pro21,Pro27]-h-amylin (peptide)
peptide: KCNTATCATQRLAEFLRHSSPNFGAIPSSTNVGSNTY
modifications: C20 diacid-gGlu on alpha amino group of N-terminal Lys 1; Cys2-Cys7 disulfide; C-terminal amide
notes: also called compound 9
B4: N^α1-[(4S)-4-carboxy-4-(19-carboxynonadecanoylamino)butanoyl]-[Glu14,Arg17,Pro21,Pro27,Pro31]-h-amylin (peptide)
peptide: {C20 diacid-γGlu}-KCNTATCATQRLAEFLRHSSPNFGAIPSSTPVGSNTY-NH2
modifications: disulfide 2-7
SMILES: CC[C@H](C)[C@H](NC(=O)[C@H](C)NC(=O)CNC(=O)[C@H](Cc1ccccc1)NC(=O)[C@H](CC(N)=O)NC(=O)[C@@H]1CCCN1C(=O)[C@H](CO)NC(=O)[C@H](CO)NC(=O)[C@H](Cc1c[nH]cn1)NC(=O)[C@H](CCCNC(=N)N)NC(=O)[C@H](CC(C)C)NC(=O)[C@H](Cc1ccccc1)NC(=O)[C@H](CCC(=O)O)NC(=O)[C@H](C)NC(=O)[C@H](CC(C)C)NC(=O)[C@H](CCCNC(=N)N)NC(=O)[C@H](CCC(N)=O)NC(=O)[C@@H](NC(=O)[C@H](C)NC(=O)[C@@H]1CSSC[C@H](NC(=O)[C@H](CCCCN)NC(=O)CC[C@H](NC(=O)CCCCCCCCCCCCCCCCCCC(=O)O)C(=O)O)C(=O)N[C@@H](CC(N)=O)C(=O)N[C@@H]([C@@H](C)O)C(=O)N[C@@H](C)C(=O)N[C@@H]([C@@H](C)O)C(=O)N1)[C@@H](C)O)C(=O)N1CCC[C@H]1C(=O)N[C@@H](CO)C(=O)N[C@@H](CO)C(=O)N[C@H](C(=O)N1CCC[C@H]1C(=O)N[C@H](C(=O)NCC(=O)N[C@@H](CO)C(=O)N[C@@H](CC(N)=O)C(=O)N[C@H](C(=O)N[C@@H](Cc1ccc(O)cc1)C(N)=O)[C@@H](C)O)C(C)C)[C@@H](C)O
notes: also called 31; compound 31
B5: N^α1-[(4S)-4-carboxy-4-(19-carboxynonadecanoylamino)butanoyl]-[Glu14,Arg17,Pro21,Pro27,Pro29]-h-amylin (peptide)
peptide: {C20 diacid-γGlu}-KCNTATCATQRLAEFLRHSSPNFGAIPSPTNVGSNTY-NH2
modifications: disulfide 2-7
SMILES: CC[C@H](C)[C@H](NC(=O)[C@H](C)NC(=O)CNC(=O)[C@H](Cc1ccccc1)NC(=O)[C@H](CC(N)=O)NC(=O)[C@@H]1CCCN1C(=O)[C@H](CO)NC(=O)[C@H](CO)NC(=O)[C@H](Cc1c[nH]cn1)NC(=O)[C@H](CCCNC(=N)N)NC(=O)[C@H](CC(C)C)NC(=O)[C@H](Cc1ccccc1)NC(=O)[C@H](CCC(=O)O)NC(=O)[C@H](C)NC(=O)[C@H](CC(C)C)NC(=O)[C@H](CCCNC(=N)N)NC(=O)[C@H](CCC(N)=O)NC(=O)[C@@H](NC(=O)[C@H](C)NC(=O)[C@@H]1CSSC[C@H](NC(=O)[C@H](CCCCN)NC(=O)CC[C@H](NC(=O)CCCCCCCCCCCCCCCCCCC(=O)O)C(=O)O)C(=O)N[C@@H](CC(N)=O)C(=O)N[C@@H]([C@@H](C)O)C(=O)N[C@@H](C)C(=O)N[C@@H]([C@@H](C)O)C(=O)N1)[C@@H](C)O)C(=O)N1CCC[C@H]1C(=O)N[C@@H](CO)C(=O)N1CCC[C@H]1C(=O)N[C@H](C(=O)N[C@@H](CC(N)=O)C(=O)N[C@H](C(=O)NCC(=O)N[C@@H](CO)C(=O)N[C@@H](CC(N)=O)C(=O)N[C@H](C(=O)N[C@@H](Cc1ccc(O)cc1)C(N)=O)[C@@H](C)O)C(C)C)[C@@H](C)O
notes: also called 37; compound 37
B6: N^α1-[(4S)-4-carboxy-4-(19-carboxynonadecanoylamino)butanoyl]-[His14,Arg17,Pro21,Pro27,Glu35]-h-amylin (peptide)
peptide: {C20 diacid-γGlu}-KCNTATCATQRLAHFLRHSSPNFGAIPSSTNVGSETY-NH2
modifications: disulfide 2-7
SMILES: CC[C@H](C)[C@H](NC(=O)[C@H](C)NC(=O)CNC(=O)[C@H](Cc1ccccc1)NC(=O)[C@H](CC(N)=O)NC(=O)[C@@H]1CCCN1C(=O)[C@H](CO)NC(=O)[C@H](CO)NC(=O)[C@H](Cc1c[nH]cn1)NC(=O)[C@H](CCCNC(=N)N)NC(=O)[C@H](CC(C)C)NC(=O)[C@H](Cc1ccccc1)NC(=O)[C@H](Cc1c[nH]cn1)NC(=O)[C@H](C)NC(=O)[C@H](CC(C)C)NC(=O)[C@H](CCCNC(=N)N)NC(=O)[C@H](CCC(N)=O)NC(=O)[C@@H](NC(=O)[C@H](C)NC(=O)[C@@H]1CSSC[C@H](NC(=O)[C@H](CCCCN)NC(=O)CC[C@H](NC(=O)CCCCCCCCCCCCCCCCCCC(=O)O)C(=O)O)C(=O)N[C@@H](CC(N)=O)C(=O)N[C@@H]([C@@H](C)O)C(=O)N[C@@H](C)C(=O)N[C@@H]([C@@H](C)O)C(=O)N1)[C@@H](C)O)C(=O)N1CCC[C@H]1C(=O)N[C@@H](CO)C(=O)N[C@@H](CO)C(=O)N[C@H](C(=O)N[C@@H](CC(N)=O)C(=O)N[C@H](C(=O)NCC(=O)N[C@@H](CO)C(=O)N[C@@H](CCC(=O)O)C(=O)N[C@H](C(=O)N[C@@H](Cc1ccc(O)cc1)C(N)=O)[C@@H](C)O)C(C)C)[C@@H](C)O
notes: also called 30; compound 30
B7: N^α1N^α1-[(4S)-4-carboxy-4-(19-carboxynonadecanoylamino)butanoyl]-[Glu14,Arg17,Pro21,Pro27,Glu35]-h-amylin (peptide)
peptide: {C20 diacid-γGlu}-KCNTATCATQRLAEFLRHSSPNFGAIPSSTNVGSETY-NH2
modifications: disulfide 2-7
SMILES: CC[C@H](C)[C@H](NC(=O)[C@H](C)NC(=O)CNC(=O)[C@H](Cc1ccccc1)NC(=O)[C@H](CC(N)=O)NC(=O)[C@@H]1CCCN1C(=O)[C@H](CO)NC(=O)[C@H](CO)NC(=O)[C@H](Cc1c[nH]cn1)NC(=O)[C@H](CCCNC(=N)N)NC(=O)[C@H](CC(C)C)NC(=O)[C@H](Cc1ccccc1)NC(=O)[C@H](CCC(=O)O)NC(=O)[C@H](C)NC(=O)[C@H](CC(C)C)NC(=O)[C@H](CCCNC(=N)N)NC(=O)[C@H](CCC(N)=O)NC(=O)[C@@H](NC(=O)[C@H](C)NC(=O)[C@@H]1CSSC[C@H](NC(=O)[C@H](CCCCN)NC(=O)CC[C@H](NC(=O)CCCCCCCCCCCCCCCCCCC(=O)O)C(=O)O)C(=O)N[C@@H](CC(N)=O)C(=O)N[C@@H]([C@@H](C)O)C(=O)N[C@@H](C)C(=O)N[C@@H]([C@@H](C)O)C(=O)N1)[C@@H](C)O)C(=O)N1CCC[C@H]1C(=O)N[C@@H](CO)C(=O)N[C@@H](CO)C(=O)N[C@H](C(=O)N[C@@H](CC(N)=O)C(=O)N[C@H](C(=O)NCC(=O)N[C@@H](CO)C(=O)N[C@@H](CCC(=O)O)C(=O)N[C@H](C(=O)N[C@@H](Cc1ccc(O)cc1)C(N)=O)[C@@H](C)O)C(C)C)[C@@H](C)O
notes: also called 22; compound 22

Numbered stars: 1 amine (or outer) side, 2 acyl side, 3 side chain; on linkers, the order of the positions; unused ones are H or OH. Bridge positions count the residues as written; N and C are the ends. * marks the point of attachment. C20 diacid = O=C(O)CCCCCCCCCCCCCCCCCCC(=O)*; γGlu = O=C(O)[C@H](CCC(=O)[*:2])N[*:1]

This assay has as its target T1, human amylin receptor (amylin 3(a) receptor: human calcitonin receptor with RAMP-3) (human, UniProt P30988 25-474; O60896 24-148).
T1 construct: whole, on cells; also called hAmylin-R; hAmylinR
T1 sequence (looked up) 1: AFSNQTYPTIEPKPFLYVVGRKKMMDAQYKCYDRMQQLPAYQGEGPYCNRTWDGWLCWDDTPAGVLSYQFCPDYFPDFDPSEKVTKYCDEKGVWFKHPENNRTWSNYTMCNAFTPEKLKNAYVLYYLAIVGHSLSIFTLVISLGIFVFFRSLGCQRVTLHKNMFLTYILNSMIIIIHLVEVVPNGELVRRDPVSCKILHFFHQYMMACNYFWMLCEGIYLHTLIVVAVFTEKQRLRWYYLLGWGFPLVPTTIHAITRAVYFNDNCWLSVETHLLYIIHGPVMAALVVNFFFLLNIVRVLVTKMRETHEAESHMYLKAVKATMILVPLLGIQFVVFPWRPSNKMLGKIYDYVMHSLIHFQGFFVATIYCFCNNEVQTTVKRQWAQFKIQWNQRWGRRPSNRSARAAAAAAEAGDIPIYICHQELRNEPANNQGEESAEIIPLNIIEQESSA
T1 sequence (looked up) 2: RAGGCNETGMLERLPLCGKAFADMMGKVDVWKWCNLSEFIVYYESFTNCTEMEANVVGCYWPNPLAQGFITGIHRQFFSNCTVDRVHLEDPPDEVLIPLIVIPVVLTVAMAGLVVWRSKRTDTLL
Description: SPA displacement of 125I-rat amylin, hAmylin 3(a) receptor membranes. Put shortly:
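Membranes from BHK Amylin 3(a)/CRE-luc cells (35 ng/μL final) were mixed with SPA beads and test compounds in 50 mM Hepes pH 7.4 with 1 mM CaCl2, 5 mM MgCl₂, 0.1% OA and 0.02% Tween20. Incubation ran 120 min at 25° C with shaking; IC₅₀ came from one-site competition fitting.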
On the technique in general: Loss of bound radioactivity is the signal in a displacement assay; it reports binding, not function.
B1: the IC50 was found to be 554 pM. In the case of {C20 diacid-γGlu}-KCNTATCATQRLAEFLRHSSPNFGAIPSSTNVGSNTP-NH2 (disulfide 2-7, also called compound 8), the IC50 was found to be 72 pM. With B2, the IC50 is 196 pM.

B3: the IC50 was 143 pM. Under B4 stands 204 pM; under {C20 diacid-γGlu}-KCNTATCATQRLAEFLRHSSPNFGAILPSTNVGSETY-NH2 (disulfide 2-7, also called 33; compound 33), 915 pM; under B5, 970 pM. In the case of B6, the IC50 was 919 pM. For B7, the IC50 was determined as 794 pM.
